Measurements: PMC6928932

Columns and labels:
[1] = target: human gastric mucin MUC6 (human (endogenous in gastric corpus tissue)) (UniProt Q6W4X9); test: far-Western, overlay or dot blot; as the overlay on fractions B12/C1, but with 30 mM EDTA and no added Ca2+
[2] = target: mucins (PAS-positive high-molecular-mass peak of human gastric extracts, containing MUC5AC and MUC6); test: SEC + native gel or EMSA; human gastric extracts (conventional extract, extract E1) on Superdex 75 HL, 20 mM Tris-HCl pH 7.0, 30 mM NaCl; fractions analysed by 1% AgGE and Western blot; semi-quantitative TFF2 content

Chain of UniProt Q6W4X9 (Q6W4X9 23-2439): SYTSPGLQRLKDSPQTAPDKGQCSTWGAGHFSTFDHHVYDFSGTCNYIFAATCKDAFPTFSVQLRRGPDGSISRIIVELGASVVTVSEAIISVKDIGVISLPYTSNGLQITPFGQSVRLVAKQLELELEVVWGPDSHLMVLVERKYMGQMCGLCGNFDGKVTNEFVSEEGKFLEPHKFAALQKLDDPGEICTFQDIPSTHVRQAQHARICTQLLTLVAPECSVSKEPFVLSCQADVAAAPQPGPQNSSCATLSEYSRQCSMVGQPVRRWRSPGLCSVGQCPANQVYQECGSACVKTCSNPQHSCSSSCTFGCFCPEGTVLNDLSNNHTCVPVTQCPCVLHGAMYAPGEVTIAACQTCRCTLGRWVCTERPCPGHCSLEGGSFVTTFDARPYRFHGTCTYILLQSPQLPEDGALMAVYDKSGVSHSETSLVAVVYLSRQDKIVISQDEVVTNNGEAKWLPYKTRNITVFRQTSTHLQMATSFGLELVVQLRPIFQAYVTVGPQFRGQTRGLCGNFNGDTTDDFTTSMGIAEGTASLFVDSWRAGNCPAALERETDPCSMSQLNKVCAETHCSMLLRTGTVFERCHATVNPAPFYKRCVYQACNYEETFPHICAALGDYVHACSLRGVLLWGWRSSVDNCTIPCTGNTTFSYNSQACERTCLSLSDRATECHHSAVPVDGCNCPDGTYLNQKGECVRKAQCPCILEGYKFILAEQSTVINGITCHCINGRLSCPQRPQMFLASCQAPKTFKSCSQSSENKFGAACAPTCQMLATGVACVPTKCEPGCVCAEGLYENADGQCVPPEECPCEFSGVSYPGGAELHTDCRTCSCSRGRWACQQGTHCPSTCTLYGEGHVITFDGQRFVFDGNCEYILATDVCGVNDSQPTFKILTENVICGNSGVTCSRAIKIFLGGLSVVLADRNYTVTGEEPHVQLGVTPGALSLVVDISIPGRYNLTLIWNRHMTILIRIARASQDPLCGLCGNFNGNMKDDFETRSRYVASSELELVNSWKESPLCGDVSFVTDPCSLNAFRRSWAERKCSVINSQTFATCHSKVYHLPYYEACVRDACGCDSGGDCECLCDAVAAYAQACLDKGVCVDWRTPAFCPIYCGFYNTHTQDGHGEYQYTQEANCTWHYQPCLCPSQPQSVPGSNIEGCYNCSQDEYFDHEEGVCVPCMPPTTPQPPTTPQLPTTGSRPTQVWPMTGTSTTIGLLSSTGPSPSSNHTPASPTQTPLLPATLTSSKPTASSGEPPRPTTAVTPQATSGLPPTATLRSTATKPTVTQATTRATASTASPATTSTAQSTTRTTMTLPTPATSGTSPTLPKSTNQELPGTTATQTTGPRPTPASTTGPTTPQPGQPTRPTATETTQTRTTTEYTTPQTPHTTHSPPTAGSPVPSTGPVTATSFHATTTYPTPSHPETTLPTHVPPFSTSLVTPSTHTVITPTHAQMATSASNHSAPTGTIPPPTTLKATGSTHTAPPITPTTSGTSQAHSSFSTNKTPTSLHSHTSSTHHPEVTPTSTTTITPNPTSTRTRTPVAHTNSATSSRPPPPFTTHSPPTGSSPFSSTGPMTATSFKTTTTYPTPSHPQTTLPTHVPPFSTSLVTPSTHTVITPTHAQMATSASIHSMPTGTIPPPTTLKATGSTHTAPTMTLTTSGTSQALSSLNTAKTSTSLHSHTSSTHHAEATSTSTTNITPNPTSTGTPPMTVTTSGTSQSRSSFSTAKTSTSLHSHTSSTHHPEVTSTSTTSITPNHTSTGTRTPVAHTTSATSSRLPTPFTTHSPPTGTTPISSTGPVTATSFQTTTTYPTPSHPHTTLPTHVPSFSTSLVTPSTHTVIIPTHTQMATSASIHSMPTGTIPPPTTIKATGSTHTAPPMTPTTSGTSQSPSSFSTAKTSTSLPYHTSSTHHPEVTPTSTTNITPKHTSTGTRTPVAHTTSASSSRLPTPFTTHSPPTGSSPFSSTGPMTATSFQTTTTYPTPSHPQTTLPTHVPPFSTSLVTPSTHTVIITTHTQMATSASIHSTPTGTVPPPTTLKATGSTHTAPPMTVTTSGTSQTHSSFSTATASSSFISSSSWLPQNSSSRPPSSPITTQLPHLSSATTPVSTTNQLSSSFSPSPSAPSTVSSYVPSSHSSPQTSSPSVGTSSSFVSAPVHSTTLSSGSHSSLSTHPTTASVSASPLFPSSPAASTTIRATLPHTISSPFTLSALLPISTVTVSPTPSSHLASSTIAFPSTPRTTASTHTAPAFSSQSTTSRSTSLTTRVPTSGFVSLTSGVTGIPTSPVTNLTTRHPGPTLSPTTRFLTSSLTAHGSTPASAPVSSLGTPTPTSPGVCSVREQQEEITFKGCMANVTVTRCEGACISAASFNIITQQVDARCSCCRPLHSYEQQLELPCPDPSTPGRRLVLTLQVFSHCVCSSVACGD

relative amount of TFF2 bound with 30 mM EDTA [1] [%]	percent of TFF2 in the high-molecular-mass form (extract E1) [2] [%]	Molecule
10		125I-labeled recombinant human glycosylated TFF2 (from UniProt Q03403 24-129) (natural protein)
	86	human gastric TFF2 (endogenous) (natural protein, mainly N-glycosylated, to a minor extent non-glycosylated) EKPSPCQCSRLSPHNRTNCGFPGITSDQCFDNGCCFDSSVTGVPWCFHPLPKQESDQCVMEVSDRRNCGYPGISPEECASRKCCFSNFIFEVPWCFFPKSVEDCHY
